T1: BAFF-R on the surface of BAFF-R-positive cells (K562-BAFF-R, NALM6, RS4, MEC1, JEKO1) (human, UniProt Q96RJ3 1-184)
T1 sequence: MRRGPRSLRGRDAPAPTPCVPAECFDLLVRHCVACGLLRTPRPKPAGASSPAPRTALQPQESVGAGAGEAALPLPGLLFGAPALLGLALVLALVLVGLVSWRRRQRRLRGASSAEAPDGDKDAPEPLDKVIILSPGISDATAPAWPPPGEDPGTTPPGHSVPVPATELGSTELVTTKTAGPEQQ

T2: His-tagged human BAFF-R antigen (BAR-H52H3, Acro) (human, UniProt Q96RJ3 7-71, limits assumed)
T2 construct: Bought protein used in BLI; not shown: His tag
T2 sequence: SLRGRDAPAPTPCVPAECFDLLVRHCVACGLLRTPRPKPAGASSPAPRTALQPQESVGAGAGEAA

B1: 0205-1, VH-Fab-Fc 1+1 α-BAFF-R VH×α-CD3 Fab bispecific antibody (bispecific antibody, human IgG4 S228P, lambda, F234A L235A)
heavy: EVQLVESGGGLVQPKGSLKLSCAASGFTFNTYAMNWVRQAPGKGLEWVARIRSKYNNYATYYADSVKDRFTISRDDSQSILYLQMNNLKTEDTAMYYCVRHGNFGNSYVSWFAYWGQGTLVTVSSASTKGPSVFPLAPCSRSTSESTAALGCLVKDYFPEPVTVSWNSGALTSGVHTFPAVLQSSGLYSLSSVVTVPSSSLGTKTYTCNVDHKPSNTKVDKRVESKYGPPCPPCPAPEAAGGPSVFLFPPKPKDTLMISRTPEVTCVVVDVSQEDPEVQFNWYVDGVEVHNAKTKPREEQFNSTYRVVSVLTVLHQDWLNGKEYKCKVSNKGLPSSIEKTISKAKGQPREPQVYTLPPCQEEMTKNQVSLWCLVKGFYPSDIAVEWESNGQPENNYKTTPPVLDSDGSFFLYSRLTVDKSRWQEGNVFSCSVMHEALHNHYTQKSLSLSLGK
light: QAVVTQESALTTSPGETVTLTCRSSTGAVTTSNYANWVQEKPDHLFTGLIGGTNKRAPGVPARFSGSLIGDKAALTITGAQTEDEAIYFCALWYSNLWVFGGGTKLTVLGQPKAAPSVTLFPPSSEELQANKATLVCLISDFYPGAVTVAWKADSSPVKAGVETTTPSKQSNNKYAASSYLSLTPEQWKSHKSYSCQVTHEGSTVEKTVAPTECS
chain: EVQLVESGGGVVQPGRSLRLTCAASGFTFSTSGMYWIRQAPGKGLEWVSYISSSSSTIYYADSVKGRFTISRDNSKNTLYLQMNSLRAEDTAVYYCVTQSCGAGKCYPGVWGQGTTVTVSSESKYGPPCPPCPAPEAAGGPSVFLFPPKPKDTLMISRTPEVTCVVVDVSQEDPEVQFNWYVDGVEVHNAKTKPREEQFNSTYRVVSVLTVLHQDWLNGKEYKCKVSNKGLPSSIEKTISKAKGQPREPQVCTLPPSQEEMTKNQVSLSCAVKGFYPSDIAVEWESNGQPENNYKTTPPVLDSDGSFFLVSRLTVDKSRWQEGNVFSCSVMHEALHNHYTQKSLSLSLGK
notes: IgG4 Fc with S228P/F234A/L235A, knobs on the CD3 side, holes on the BAFF-R side
B2: 0205-2, VH2-Fab-Fc 2+1 α-BAFF-R VH×α-CD3 Fab bispecific antibody (bispecific antibody)
heavy 1: EVQLVESGGGVVQPGRSLRLTCAASGFTFSTSGMYWIRQAPGKGLEWVSYISSSSSTIYYADSVKGRFTISRDNSKNTLYLQMNSLRAEDTAVYYCVTQSCGAGKCYPGVWGQGTTVTVSSGGGGSGGGGSEVQLVESGGGLVQPKGSLKLSCAASGFTFNTYAMNWVRQAPGKGLEWVARIRSKYNNYATYYADSVKDRFTISRDDSQSILYLQMNNLKTEDTAMYYCVRHGNFGNSYVSWFAYWGQGTLVTVSSASTKGPSVFPLAPCSRSTSESTAALGCLVKDYFPEPVTVSWNSGALTSGVHTFPAVLQSSGLYSLSSVVTVPSSSLGTKTYTCNVDHKPSNTKVDKRVESKYGPPCPPCPAPEAAGGPSVFLFPPKPKDTLMISRTPEVTCVVVDVSQEDPEVQFNWYVDGVEVHNAKTKPREEQFNSTYRVVSVLTVLHQDWLNGKEYKCKVSNKGLPSSIEKTISKAKGQPREPQVYTLPPCQEEMTKNQVSLWCLVKGFYPSDIAVEWESNGQPENNYKTTPPVLDSDGSFFLYSRLTVDKSRWQEGNVFSCSVMHEALHNHYTQKSLSLSLGK
light: QAVVTQESALTTSPGETVTLTCRSSTGAVTTSNYANWVQEKPDHLFTGLIGGTNKRAPGVPARFSGSLIGDKAALTITGAQTEDEAIYFCALWYSNLWVFGGGTKLTVLGQPKAAPSVTLFPPSSEELQANKATLVCLISDFYPGAVTVAWKADSSPVKAGVETTTPSKQSNNKYAASSYLSLTPEQWKSHKSYSCQVTHEGSTVEKTVAPTECS
heavy 2: EVQLVESGGGVVQPGRSLRLTCAASGFTFSTSGMYWIRQAPGKGLEWVSYISSSSSTIYYADSVKGRFTISRDNSKNTLYLQMNSLRAEDTAVYYCVTQSCGAGKCYPGVWGQGTTVTVSSESKYGPPCPPCPAPEAAGGPSVFLFPPKPKDTLMISRTPEVTCVVVDVSQEDPEVQFNWYVDGVEVHNAKTKPREEQFNSTYRVVSVLTVLHQDWLNGKEYKCKVSNKGLPSSIEKTISKAKGQPREPQVCTLPPSQEEMTKNQVSLSCAVKGFYPSDIAVEWESNGQPENNYKTTPPVLDSDGSFFLVSRLTVDKSRWQEGNVFSCSVMHEALHNHYTQKSLSLSLGK
notes: To be checked
B3: 0205-3, VH2-Fab2-Fc 2+2 α-BAFF-R VH×α-CD3 Fab bispecific antibody (bispecific antibody)
heavy: not shown
light: QAVVTQESALTTSPGETVTLTCRSSTGAVTTSNYANWVQEKPDHLFTGLIGGTNKRAPGVPARFSGSLIGDKAALTITGAQTEDEAIYFCALWYSNLWVFGGGTKLTVLGQPKAAPSVTLFPPSSEELQANKATLVCLISDFYPGAVTVAWKADSSPVKAGVETTTPSKQSNNKYAASSYLSLTPEQWKSHKSYSCQVTHEGSTVEKTVAPTECS
notes: To be checked
B4: SP34 monoclonal antibody (anti-CD3) (antibody, human IgG4 S228P, lambda, V domains shown)
VH: EVQLVESGGGLVQPKGSLKLSCAASGFTFNTYAMNWVRQAPGKGLEWVARIRSKYNNYATYYADSVKDRFTISRDDSQSILYLQMNNLKTEDTAMYYCVRHGNFGNSYVSWFAYWGQGTLVTVSS
VL: QAVVTQESALTTSPGETVTLTCRSSTGAVTTSNYANWVQEKPDHLFTGLIGGTNKRAPGVPARFSGSLIGDKAALTITGAQTEDEAIYFCALWYSNLWVFGGGTKLTVLG
notes: also called α-CD3 monoclonal antibody

Columns and labels:
[1] = target: T1, BAFF-R on the surface of …; experiment: cell-based or functional assay
[2] = target: T1, BAFF-R on the surface of …; experiment: cell-based or functional assay; remark: listed apart in the source
[3] = target: T1, BAFF-R on the surface of …; experiment: cell-based or functional assay; remark: listed apart in the source
[4] = target: T1, BAFF-R on the surface of …; experiment: cell-based or functional assay; remark: listed apart in the source
[5] = target: T1, BAFF-R on the surface of …; experiment: cell-based or functional assay; remark: listed apart in the source
[6] = target: T1, BAFF-R on the surface of …; experiment: cell-based or functional assay; remark: listed apart in the source
[7] = target: T2, His-tagged human BAFF-R antigen …; experiment: BLI (ForteBio Octet), His-tagged antigen on HIS1K sensor, antibody in solution
[8] = target: T3, His-tagged human CD3E&G (CDG-H52W6, Acro) (human, UniProt P07766 23-126; P09693 23-111); experiment: as above
T3 construct: Bought His-tagged heterodimer; also called CD3E&G heterodimer complex

[9] = target: T4, His-tagged human CD3E&D (CDD-H52W1, Acro) (human, UniProt P07766 23-126; P04234 22-105); experiment: as above
T4 construct: Bought His-tagged heterodimer; also called CD3E&D heterodimer complex
Wherever TDCC reporter gene cell activation by Jeko-1, top is given: unit not given here.
Wherever TDCC reporter gene cell activation by K562-BAFF-R, top is given: unit not given here.
Wherever TDCC reporter gene cell activation by Mec-1, top is given: unit not given here.
Wherever TDCC reporter gene cell activation by Nalm6, top is given: unit not given here.

T4 sequence (P07766 23-126, chain 1 of 2): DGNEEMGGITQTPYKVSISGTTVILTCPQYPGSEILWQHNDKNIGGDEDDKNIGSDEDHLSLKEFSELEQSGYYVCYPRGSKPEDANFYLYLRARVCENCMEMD
T4 sequence (P04234 22-105, chain 2 of 2): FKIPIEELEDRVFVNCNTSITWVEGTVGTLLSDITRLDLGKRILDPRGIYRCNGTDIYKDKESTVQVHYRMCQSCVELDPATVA
T3 sequence (P07766 23-126, chain 1 of 2): as the sequence (P07766 23-126, chain 1 of 2) above
T3 sequence (P09693 23-111, chain 2 of 2): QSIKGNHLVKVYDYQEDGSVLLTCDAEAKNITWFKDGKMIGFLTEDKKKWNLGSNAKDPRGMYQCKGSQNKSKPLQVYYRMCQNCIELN

Row | Binder | TDCC reporter gene cell activation by Nalm6, EC50 [1] | TDCC reporter gene cell activation by Nalm6, top [1] | killing of Jeko-1 cells by PBMC (Donor 605C), 24hr, top (%) [2] | killing of Jeko-1 cells by PBMC (Donor 605C), 48hr, top (%) [2] | killing of Jeko-1 cells by PBMC (Donor 301C), 24hr, top (%) [3] | killing of Jeko-1 cells by PBMC (Donor 301C), 48hr, top (%) [3] | TDCC reporter gene cell activation by K562-BAFF-R, EC50 [4] | TDCC reporter gene cell activation by K562-BAFF-R, top [4] | TDCC reporter gene cell activation by Mec-1, EC50 [5] | TDCC reporter gene cell activation by Mec-1, top [5] | TDCC reporter gene cell activation by Jeko-1, EC50 [6] | TDCC reporter gene cell activation by Jeko-1, top [6] | Kd [7] | koff [7] | Kd [8] | koff [8] | kon [8] | Kd [9] | koff [9] | kon [9] | other results
1 | B1 | 3.2 nM | 381 | -12.6% | -12.8% | -22.3% | -12.2% | 0.059 nM | 9430 | 7.31 nM | 793 | 11.7 nM | 864 | 1.78 nM | 0.00245 s⁻¹ | 6.68 nM | 0.0278 s⁻¹ | 4.16e+06 M⁻¹ s⁻¹ | 10.7 nM | 0.00811 s⁻¹ | 759000 M⁻¹ s⁻¹ | kon [7]: 1.38e+06 M⁻¹ s⁻¹
2 | B2 | 0.068 nM | 2430 | 39% | 101% | 57.8% | 99.9% | 0.054 nM | 12300 | 0.5 nM | 2930 | 0.23 nM | 1650 | 1.12 nM | 0.000976 s⁻¹ | 11.1 nM | 0.00291 s⁻¹ | 262000 M⁻¹ s⁻¹ | 10.3 nM | 0.00314 s⁻¹ | 306000 M⁻¹ s⁻¹ | killing of Jeko-1 cells by PBMC (Donor 605C), 24hr, EC50(pM) [2]: 13.1 pM; killing of Jeko-1 cells by PBMC (Donor 605C), 48hr, EC50(pM) [2]: 3.58 pM; killing of Jeko-1 cells by PBMC (Donor 301C), 24hr, EC50(pM) [3]: 52.8 pM; killing of Jeko-1 cells by PBMC (Donor 301C), 48hr, EC50(pM) [3]: 9.74 pM; kon [7]: 875000 M⁻¹ s⁻¹
3 | B3 | 0.021 nM | 1870 | 6.34% | 102% | 28.5% | 102% | 0.041 nM | 10900 | 0.047 nM | 1490 | 0.046 nM | 1230 | 1.27 nM | 0.00136 s⁻¹ | 9.03 nM | 0.00251 s⁻¹ | 277000 M⁻¹ s⁻¹ | 10.6 nM | 0.0032 s⁻¹ | 302000 M⁻¹ s⁻¹ | killing of Jeko-1 cells by PBMC (Donor 605C), 24hr, EC50(pM) [2]: 2.48 pM; killing of Jeko-1 cells by PBMC (Donor 605C), 48hr, EC50(pM) [2]: 2.81 pM; killing of Jeko-1 cells by PBMC (Donor 301C), 24hr, EC50(pM) [3]: 18 pM; killing of Jeko-1 cells by PBMC (Donor 301C), 48hr, EC50(pM) [3]: 8.78 pM; kon [7]: 1.07e+06 M⁻¹ s⁻¹
4 | B4 | – | – | – | – | – | – | – | – | – | – | – | – | – | – | 7.87 nM | 0.0029 s⁻¹ | 369000 M⁻¹ s⁻¹ | 6.38 nM | 0.00301 s⁻¹ | 473000 M⁻¹ s⁻¹ | –
